# Results taken from IntAct's records for PubMed 25313826.
# B1: Chromatin assembly factor 1 subunit A (Schizosaccharomyces pombe (strain ATCC 38366 / 972)), Q1MTN9 (parent)
# chain: MNSESVDSDVAASTSNKGNELCSSSTDITSLSVSSPNESVIHSSHSASEADEYVCKLSYEGNRKKRIYNGSAEAGKEKKLQKQRAQEERIRQKEAERLKREKERQQREQEKKLREQEKIAAKKMKELEKLEKERIRLQEQQRRKEERDQKLREKEEAQRLRQEQILNKERQQLKLNNFFTKGVEKRIAPNENFVADKTDELNEFEKEFRPFFIKHQMSLSKYPSPNESDSFLDEVLSTSKSYPLKLNDIFTPSDAVSSANSLGVSNRNSENEVRQLMSAYQDPSVSKPQEILSCLSQIPIKFIFFYQDVRPPYFGSYTKTHSHGSNVLLNPWLEDEDIDYTYDSEAEWVADEEDDGEDLESEDEEVDNSDDIVEDGDNAFVDDEDDDKDSVNASNTHRSSGPLEVIVEGPVWDSKFLPDFNCLSLIEPISSFSASTYLQIDPKEDLWASQDTAPASSGMTIGPTSSLSDDLQVRFPSEDIPKFIEYVRNSHDNKVFLIENLRHMFPYVTKNIISETLGKVAVRKGKSVSDGWIIKENFASLLSS
# partner: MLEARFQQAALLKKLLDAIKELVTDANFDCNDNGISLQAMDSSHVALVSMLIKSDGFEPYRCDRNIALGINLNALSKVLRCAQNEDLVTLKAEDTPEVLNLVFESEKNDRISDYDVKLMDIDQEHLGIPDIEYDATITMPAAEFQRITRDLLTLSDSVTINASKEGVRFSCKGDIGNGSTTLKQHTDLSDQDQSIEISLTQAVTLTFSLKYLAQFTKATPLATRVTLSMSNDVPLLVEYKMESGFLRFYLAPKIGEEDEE
# Variants of: B1
# Conditions: with pcna_schpo pcn1, Q03392
row,Variant,effect of a mutation on the interaction
1,Q172A;L175A;F178A;F179A,disrupting interaction strength
